Reference: article PMC11579514, “Validation of NBD-coupled taurocholic acid for intravital analysis of bile acid transport in liver and kidney of mice” (EXCLI Journal, 2024)

Legend:
[1] = substrate: C[C@H](CCC(=O)NCCS(=O)(=O)O)[C@H]1CC[C@H]2[C@@H]3[C@H](O)C[C@@H]4C[C@@H](Nc5ccc([N+](=O)[O-])c6nonc56)CC[C@]4(C)[C@H]3C[C@H](O)[C@]12C; assay: sodium-dependent fluorescent uptake kinetics (Km) in mAsbt-HEK cells; format: cell-based, Mus musculus; conditions: Na+
[2] = substrate: C[C@H](CCC(=O)NCCS(=O)(=O)O)[C@H]1CC[C@H]2[C@@H]3[C@H](O)C[C@@H]4C[C@@H](Nc5ccc([N+](=O)[O-])c6nonc56)CC[C@]4(C)[C@H]3C[C@H](O)[C@]12C; assay: sodium-dependent fluorescent uptake kinetics (Km) in mNtcp-HEK cells; format: cell-based, Mus musculus; conditions: Na+

B1: mAsbt (mouse apical sodium-dependent bile acid transporter) (Mus musculus) (protein)
chain: MDNSSVCPPNATVCEGDSCVVPESNFNAILNTVMSTVLTILLAMVMFSMGCNVEVHKFLGHIKRPWGIFVGFLCQFGIMPLTGFILSVASGILPVQAVVVLIMGCCPGGTGSNILAYWIDGDMDLSVSMTTCSTLLALGMMPLCLFVYTKMWVDSGTIVIPYDSIGISLVALVIPVSFGMFVNHKWPQKAKIILKIGSITGVILIVLIAVIGGILYQSAWIIEPKLWIIGTIFPIAGYSLGFFLARLAGQPWYRCRTVALETGMQNTQLCSTIVQLSFSPEDLNLVFTFPLIYTVFQLVFAAVILGIYVTYRKCYGKNDAEFLEKTDNEMDSRPSFDETNKGFQPDEK
notes: full open reading frame with C-terminal FLAG, stably expressed in HEK293
**Q.** With B1 as the protein, how does the Km [1] read?
**A.** Its Km is 19.1 µM.

B2: mNtcp (mouse Na+/taurocholate co-transporting polypeptide) (Mus musculus) (protein)
chain: MEAHNVSAPFNFSLPPGFGHRATDTALSVILVVMLLLIMLSLGCTMEFSKIKAHFWKPKGVIIAIVAQYGIMPLSAFLLGKVFHLTSIEALAILICGCSPGGNLSNLFTLAMKGDMNLSIVMTTCSSFTALGMMPLLLYIYSKGIYDGDLKDKVPYKGIMLSLVMVLIPCAIGIFLKSKRPHYVPYVLKAGMIITFSLSVAVTVLSVINVGNSIMFVMTPHLLATSSLMPFTGFLMGYILSALFRLNPSCRRTISMETGFQNVQLCSTILNVTFPPEVIGPLFFFPLLYMIFQLAEGLLFIIIFRCYLKIKPQKDQTKITYKAAATEDATPAALEKGTHNGNNPPTQPGLSPNGLNSGQMAN
notes: as for B1
**Q.** With B2 as the protein, how does the Km [2] read?
**A.** The Km was 23.3 µM.
